Source: a protein production outcome set (Wang et al. 2014)

assay: label from the status in PepcDB records
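Further: failed if final PepcDB status was selected cloned or expressed and not failed if soluble or beyond.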

Row | Sequence | protein production
1 | MNKWVITSLFAISTLSASVASALEVRYMATPQQSTWQMATNTPLECRLVHPIPNYGDAEFSSRAGKKINLDFELKMRRPMGDTRNVSLVSMPPVWRPGEGADRITNLQFFKQFDGYIGGQTAWSLLSELEKGRYPTFSYQDWQSRDQRIEVALSSVLFQQPYNEFSDCISKLLPYSFEDISFTILHYDQGTSVELNKASQKRLAQIAEYVRYNQDIDLVLVSTYTDSTDTNNNSQNLSEQRAEVLREYFKSIGLPEDRIQVQGYGKRRPIADNASPIGKDKNRRVVISLGRTQV | failed
2 | MNLDLGSTVRGYESDKDTFPQSKGVSSSQKEQHSQLNQTKIAYEQRLLNDLEDMDDPLDLFLDYMIWISTSYIEVDSESGQEVLRSTMERCLIYIQDMETYRNDPRFLKIWIWYINLFLSNNFHESENTFKYMFNKGIGTKLSLFYEEFSKLLENAQFFLEAKVLLELGAENNCRPYNRLLRSLSNYEDRLREMNIVENQNSVPDSRERLKGRLIYRTAPFFIRKFLTSSLMTDDKENRANLNSNVGVGKSAPNVYQDSIVVADFKSETERLNLNSSKQPSNQRLKNGNKKTSIYADQKQSNNPVYKLINTPGRKPERIVFNFNLIYPENDEEFNTEEILAMIKGLYKVQRRGKKHTEDYTSDKNRKKRKLDVLVERRQDLPSSQPPVVPKSTRIEVFKDDDNPSQSTHHKNTQVQVQTTTSILPLKPVVDGNLAHETPVKPSLTSNASRSPTVTAFSKDAINEVFSMFNQHYSTPGALLDGDDTTTSKFNVFENFTQEFTAKNIEDLTEVKDPKQETVSQQTTSTNETNDRYERLSNSSTRPEKADYMTPIKETTETDVVPIIQTPKEQIRTEDKKSGDNTETQTQLTSTTIQSSPFLTQPEPQAEKLLQTAEHSEKSKEHYPTIIPPFTKIKNQPPVIIENPLSNNLRAKFLSEISPPLFQYNTFYNYNQELKMSSLLKKIHRVSRNENKNPIVDFKKTGDLYCIRGELGEGGYATVYLAESSQGHLRALKVEKPASVWEYYIMSQVEFRLRKSTILKSIINASALHLFLDESYLVLNYASQGTVLDLINLQREKAIDGNGIMDEYLCMFITVELMKVLEKIHEVGIIHGDLKPDNCMIRLEKPGEPLGAHYMRNGEDGWENKGIYLIDFGRSFDMTLLPPGTKFKSNWKADQQDCWEMRAGKPWSYEADYYGLAGVIHSMLFGKFIETIQLQNGRCKLKNPFKRYWKKEIWGVIFDLLLNSGQASNQALPMTEKIVEIRNLIESHLEQHAENHLRNVILSIEEELSHFQYKGKPSRRF | failed
3 | MNLFAPPALFRHFHRMAWLAALFTASTILFGSFVRLSDAGMSCPDWPTCYGRVTWPQTSDEANTHVASKIRPLESHKAWREQVHRFLAGALGVEVLVLSLLAVRRRRMGIAQVVSAAVLVALSIPLYMSGWHATAFGMAITGEAILLLAALRWSNIDLARAAVLTLAVVIFQALLGMWTVTLLLKPIVVMGHLLGGMLMFSLLVWMAWRATHLPITLADASRLKWLLRLGVAVLGLQIALGGWVSANYAALACGGGSWSADNFPRCVSQWWPPHDFREGFTLWRGIGVDYEGGVLDGAARIAIQMAHRLWAIATALYLWWLAWRLSRSPGMRVWAGALALLVAVQVTLGMLNVKLALPLEVSLMHNGGAVALLFVLVSLLARLRAPE | failed
4 | MNLFVLLFVFVFGIIGSYSSKFSEKNLFWLFVIVLAIIIGGRSISVPDTDQYLEFYQLTLSSSILDIPLYSYEIGFQLLTKILKLITNGSSFFYFGIIVLINSYFLFKSFSCFTDQSYPSKKSSGTLINQIKLQEFLLLYFSYWGLYYTGIVLRAGIAMSILIYLSTLLCSPYISLKKWSAIFLLAIISCSFHITALLGIIALIIFYISKKMTMRSYLLLFLLICIILFGKVSFWIVDMLDRNMPMIFSLIEDTDFAKLQAYSNIDASIKISFRFLFCLLIGLFFIICKRMPLYYYKYLNVYIVGLFLGALFSAIEAFSRIMDFFVIYSFILISMRLSTINSFKIRFSIMFSIVLIQLLFVYRIIIGL | failed
5 | MNLGILLGFLIYLVLLAYIGWWANRYTKTEEQYFIGGRKVHVLAATLSDKASDFSGWLMLGYPGTAFKTGLGAFWAAIGCLFGTLADYLLIGPRLRIYAGKFRSITLPDYLEARLKDNTKLIRILSAAIILIFMTAYVAAQFAAGGKTFSEAFGVSVTTGILITVIILTAYVITGGFFAVVWTDVVQAMFMLLTLIIMPILALAEIGGLDKATQIIGSVNPAKLHPFGGATGLAAIVFAIGYASWIVGYLGQPHIVTRYMSVEDPRKLRRPGIFISGIWTTIVLWGAFFAGFLGFALAINGSIKIDDPEKIVPAMAVHFLPSWIAGFVIAGIISAVMSTADSQLLVASSAIARDIYHKVLGQELGKKQMVNISRVVVAIVSLIAMWFAISGPKVIYQMVATAWGGLAVGFGPILTLSLWWKRVTKEAGIIGMGYGLISEVLLEAKIYGWAFNPNAPGFFGTLGKWFNGVPVFFINFFITLLVIIIVSLLTKPPEDVVKLHKELFKKVPIEKSEKIKVARAKSQAENVFDFAIASGLL | failed
6 | MNLILYLVTVFVALFAMVNPIGALPVLVSVTEGYSKDDFERVVRYAAMSEALMLFSFMLIGIYIFEVLGININDFKVAGGVLLFKVAFDMLQGRTSTTKLTPAETEESIERTSIGIAPIGTPLLAGPGSITAAIIYFNSYSVNIPEKIAVVISVSLVVVISYFILHYSSVLFKYLGKTGSLIISRIMGLLLAAIAVDFMVTGLAFIVKSITGV | failed
7 | MNLKDLLAHRENLMDSAKRARSAITDDMDPADAAQAVENVKSIISEIESTDEAIAARRGVSDVTQKLKGLTITERGTENDSAASRSLGEHFVKAAGDRLKNQAAGAHIEYSVPEYQVKEDAHSSPKDLVEGWGTFYQRGIINQRRERLVAADLMGAATVTASTVKYIVEKANRIASGAPATVAEGTKKPYVKYADFDVVTESLSKVAALAKFTDEMIEDYDFVASWINNNLVYDLSVVEEKQLINGDGRGSNIKGLLNREGIQTHKSAKQADWFNDLFKAKNKVSQATNLEADGIMINPVNYEALRLTKDGNGQYIAGGPFQGQYGNGNILIDPPLWGIKTVVSNAVPAGTAIVGAFRQGATVLRKGGVRVDSANTNADDFENNLVTLRAEERLGLMVPLPAAFVKVTLEETTEEL | not failed
8 | MNLKQIAKDTAKTLQSYLTYQALMTVLAQLGETNPPLALWLHTFSVGKVQDGEAYVKELFREQPDLALRIMTVREHIAEEVAEFLPEMVRSGIQQANMEQRRQHLERMTHLSLSNPSPESEQQTISDTDWDH | failed
9 | MNLKTLKIFIEGYGCTLNTADTNIINNSIKKFKNFIIVNNLDDADIVVINTCVVRLETEHKMISRINYIKSLNKYIVIAGCMPKALKKKAEKINPDILIMPKEAHLIGDIIYNYFKNNIGNENNADNKIEDSMKCGELPHNQASSSGNYNDIDNKLTQLKPNNLIMPLPISEGCTGKCTYCIVKIARGRLASYNPDKIINKAKEFVDNGVKQMLITSQDTACYGFDKNTTLPTLLNEICQIKGDFNIRIGMMHAKNVPMIIDELIDRYKDDKITKFFHLPIQSGDDDVLRAMKREYTVDEYMDIAMEFKRKIKDLNFNTDVIVGFPTETEDNFNNTIELLKKLKPDAIHGAKYTQRKGTEADRLKQVDTKIRKERMKILDKLRKEFSLENHEKYVGKIMPCLIVGKNEGITHNCKTVKFENCEDVKIGEFRKIKIKEALTFGLYGEIIN | failed
10 | MNLLIENIRGISYALVSPTLSLMLIVIAIIFYFKNRKIAFMQKLMLGRSIQSPLEMTLLQILIGILGGLIASLLLSILGVTFENSSLIDVILTVSVFSVLYKNRFLKFPYIAALLGVIGVLVSKNTEYFGRGFSFSINLTSIIVLIGVFSIVEGILAMIDGDKGYLPIFTQKDGKLVGGFGFKRFWALPLCLLVVLGANSGNSIINEVKDLPQWLPFFNGDKARALMSVAALGTLAAYGATSYEGTTFTQSKRSKTITSGLINIAYGIVVIILAYLLKESLVFTIALIILIPLLYELRIRMELKLESLREPLYFSNDDEICILDVLPNSIAYKKGLRSGDKIVKINEEIPKNEKEVFMAIKRNFYGLDLEIRKNNGNIEKHTITGEDRGKQFGIVLVPKGISFDKEIDEFLEKLKKASKDEEVKNK | failed
11 | MNLLTVSTDLISIFLFTTLFLFFARKVAKKVGLVDKPNFRKRHQGLIPLVGGISVYAGICFTFGIVDYYIPHASLYLACAGVLVFIGALDDRFDISVKIRATIQAAVGIVMMVFGKLYLSSLGYIFGSWEMVLGPFGYFLTLFAVWAAINAFNMVDGIDGLLGGLSCVSFAAIGMILWFDGQTSLAIWCFAMIAAILPYIMLNLGILGRRYKVFMGDAGSTLIGFTVIWILLETTQGKTHPISPVTALWIIAIPLMDMVAIMYRRLRKGMSPFSPDRQHIHHLIMRAGFTSRQAFVLITLAAALLASIGVLAEYSHFVPEWVMLVLFLLAFFLYGYCIKRAWKVARFIKRVKRRLRRNRGGSPNLTK | failed
12 | MNLLYVVLIGQILLFLIGAIYAMRQTKRTKDNMPLPLAIRLILSFSLTGSAIWIWLQDPSVEYSTWVALGMTLSTVGDLFMAGLIPIGHRLIGGMVTFALAHCFYVKAFLQTGISWNGFWIGLLVYGLFLIVGWFFFIRNDKQDKLFTIGALIYGLWVGGMACFAFALYYENTGIWWIPAFGGLLFVISDFIIGVTDIGGRKLKYEPLWIWFTYVAAQMCIVYVGL | failed
13 | MNLMRFLRRPISLRQRLILTIGAILLVFELISVFWLWHESTEQIQLFEQALRDNRNNDRHIMREIREAVASLIVPGVFMVSLTLFICYQAVRRITRPLAELQKELEARTADNLTPIAIHSATLEIEAVVSALNDLVSRLTSTLDNERLFTADVAHELRTPLAGVRLHLELLAKTHHIDVAPLVARLDQMMESVSQLLQLARAGQSFSSGNYQHVKLLEDVILPSYDELSTMLDQRQQTLLLPESAADITVQGDATLLRMLLRNLVENAHRYSPQGSNIMIKLQEDGGAVMAVEDEGPGIDESKCGELSKAFVRMDSRYGGIGLGLSIVSRITQLHHGQFFLQNRQETSGTRAWVRLKKDQNVANQI | failed
14 | MNLNNIRSSMTESTKSKDESMRSHLVKPGSVYDGIEPGELGETTESVQDRVRQLESRNSFLEEQCSQIESEKRYLENQKIKYEREIRKLQSELDRMKTSPLIIGTVIDVIKNDRIIVRSSNGPQFLVNVSQYIDEKKLLPGAKVALNQHTLAIAEVIPSTEEPFVAAMEVIESVEVDYDQIGGLDEQIQELQEAVELPLTSPERFARIGIEPPKGVLLYGLPGTGKTLLAKAVAHRTNATFIRVVGSELVQKYIGDGSKLVREIFEMARKKAPSIIFIDELDSIAARRLNETTGADREVQRTLMQLLAEMDGFDKRKNIRIIAATNRPDVLDPAILRPGRFDRLVHVPMPGIEARGKILKIHCEKMTLAEDIDFKKLAKATEGMSGADLKAIATEAGMFAVRRDKELVEMEEFLEAVEKVSMAADTQKMMPSNLPETMFV | failed
15 | MNLSKFPVYVQAAILALVLALVGYLVAQALQFSLKAEVIFAVGLAIGGFVVPLFLNRAPAGVAELASSQETCTLYVGNLPYRANEIAVRELFAEQGQVISVRLMKDKATGKRRGFGFVEMPAADAAKAIAALNDKEYQQRTLKVREANDKRDKDEREGSEVDA | failed
16 | MNLTFDYTKEPSRDVFCIDVKSFYASVECVERGLDPLKTMLVVMSNSENSGGLVLAASPMAKKVLGISNVTRKNEVPDHPNLIIVPPRMKLYMKKNQEINNLYKRFVSDEDHSVFSVDESFLDVTASLTYFKCDTAYKLAKIIQRVIYNHMGLYVTIGIGENPLLAKLALDNEAKNAPGFVAEWRYEDVPEKVWPISPLTEFCGIGNRMAARLKKLGIRSIYDLAHIEPYMLKERFGIMGLQLYAHSWGIDRSFLGQKAGRPTEKSFGNSQVLPKDYANKEQIKLVLKELSDQVASRLRMASCQTTCVSLFVGYSKGQTDKYGQTGWRRQMKVEPSNNTKVLTEHVLRLFEENYAPGVDVRNLGVSYGRLVWNKNLQLDLFSVPEEQIHETDMYFLIDKIRQKFGFKALIHASSLMEGATAISRASLVGGHAGGTVGLGTTK | failed
17 | MNLTFLGLCIACMGVSVGEGLLMNGLFKSVARQPDMLSEFRSLMFLGVAFIEGTFFVTLVFSFIIK | failed
